Target: the molecule itself
Assay: SDS-PAGE and Western blot

B1: HA-tagged rat syndecan-4 AAA mutant (serines 44, 65 and 67 mutated to alanine; no glycosaminoglycan chains) (receptor, UniProt P34901 24-202, looked up)
chain: ESIRETEVIDPQDLLEGRYFAGALPDDEDAGGLEQDSDFELAGAGDLDDTEEPRTFPEVISPLVPLDNHIPENAQPGIRVPSEPKELEENEVIPKRVPSDVGDDDVSNKVSMSSTSQGSNIFERTEVLAALIVGGVVGILFAVFLILLLVYRMKKKDEGSYDLGKKPIYKKAPTNEFYA
  stoichiometry N: 2

Source: PMC2863221 (The Journal of Biological Chemistry, 2010)
